Ends that are not written are not given here.
B1: eIF4G1 wild type peptide (peptide)
peptide: KKRYDREFLLGF
notes: also called eIF4G1-WT; eIF4G1 peptide; source: synthetic peptide (Mimotopes), HPLC purified to >90%
B2: VL-PHAGESOL-L12F peptide (peptide)
peptide: KKRYSRDQLLAF
notes: PHAGESOL with V10L and L12F; source: synthetic peptide (Mimotopes), HPLC purified to >90%
B3: eIF4G1-D5N peptide (peptide)
peptide: KKRYNREFLLGF
notes: eIF4G1 peptide with D5N; source: synthetic peptide (Mimotopes), HPLC purified to >90%
B4: eIF4G1-F8Q peptide (peptide)
peptide: KKRYDREQLLGF
notes: eIF4G1 peptide with F8Q; also called eIF4G-F/Q; source: synthetic peptide (Mimotopes), HPLC purified to >90%
B5: eIF4G1-D5S peptide (peptide)
peptide: KKRYSREFLLGF
notes: eIF4G1 peptide with D5S; also called eIF4G-D5S; source: synthetic peptide (Mimotopes), HPLC purified to >90%
B6: VL-PHAGESOL-Q8F/L12F peptide (peptide)
peptide: KKRYSRDFLLAF
notes: PHAGESOL with V10L, Q8F and L12F; source: synthetic peptide (Mimotopes), HPLC purified to >90%
B7: eIF4G1-D5T peptide (peptide)
peptide: KKRYTREFLLGF
notes: eIF4G1 peptide with D5T; source: synthetic peptide (Mimotopes), HPLC purified to >90%
B8: eIF4G1-D5C peptide (peptide)
peptide: KKRYCREFLLGF
notes: eIF4G1 peptide with D5C; source: synthetic peptide (Mimotopes), HPLC purified to >90%
B9: VL-PHAGESOL peptide (peptide)
peptide: KKRYSRDQLLAL
notes: PHAGESOL with V10L; also called PHAGESOL V10L; source: synthetic peptide (Mimotopes), HPLC purified to >90%
B10: PHAGESOL-Q8F/L12F peptide (peptide)
peptide: KKRYSRDFLVAF
notes: PHAGESOL with Q8F and L12F; source: synthetic peptide (Mimotopes), HPLC purified to >90%
B11: eIF4G1-D5G peptide (peptide)
peptide: KKRYGREFLLGF
notes: eIF4G1 peptide with D5G; source: synthetic peptide (Mimotopes), HPLC purified to >90%
B12: eIF4G1-QL peptide (peptide)
peptide: KKRYDREQLLGL
notes: eIF4G1 peptide with F8Q and F12L; also called eIF4G1_F8Q/F12L; source: synthetic peptide (Mimotopes), HPLC purified to >90%
B13: eIF4G1-F12L peptide (peptide)
peptide: KKRYDREFLLGL
notes: eIF4G1 peptide with F12L; also called F12L mutant peptide; source: synthetic peptide (Mimotopes), HPLC purified to >90%
B14: VL-PHAGESOL-Q8F peptide (peptide)
peptide: KKRYSRDFLLAL
notes: PHAGESOL with V10L and Q8F; source: synthetic peptide (Mimotopes), HPLC purified to >90%
B15: eIF4G1-D5E peptide (peptide)
peptide: KKRYEREFLLGF
notes: eIF4G1 peptide with D5E; also called eIF4G-D5E; source: synthetic peptide (Mimotopes), HPLC purified to >90%
B16: PHAGESOL peptide (peptide)
peptide: KKRYSRDQLVAL
notes: phage display selected 12-mer … with its N-terminal SLH changed to KKR of the eIF4G1 peptide; source: synthetic peptide (Mimotopes), HPLC purified to >90%
B17: eIF4G1-L10V peptide (peptide)
peptide: KKRYDREFLVGF
notes: eIF4G1 peptide with L10V; source: synthetic peptide (Mimotopes), HPLC purified to >90%
B18: PHAGESOL-Q8F peptide (peptide)
peptide: KKRYSRDFLVAL
notes: PHAGESOL with Q8F; source: synthetic peptide (Mimotopes), HPLC purified to >90%
B19: PHAGESOL-L12F peptide (peptide)
peptide: KKRYSRDQLVAF
notes: PHAGESOL with L12F; source: synthetic peptide (Mimotopes), HPLC purified to >90%
B20: eIF4G1-E7D peptide (peptide)
peptide: KKRYDRDFLLGF
notes: eIF4G1 peptide with E7D; also called E7D mutant peptide; source: synthetic peptide (Mimotopes), HPLC purified to >90%
B21: PHAGESOL-D7E peptide (peptide)
peptide: KKRYSREQLVAL
notes: PHAGESOL with D7E; source: synthetic peptide (Mimotopes), HPLC purified to >90%
B22: eIF4G1-OPT peptide (peptide)
peptide: KKRYSREFLLAF
notes: eIF4G1 peptide with D5 changed to S and G11 changed to A; source: synthetic peptide (Mimotopes), HPLC purified to >90%
B23: eIF4G1-D5P peptide (peptide)
peptide: KKRYPREFLLGF
notes: eIF4G1 peptide with D5P; source: synthetic peptide (Mimotopes), HPLC purified to >90%
B24: eIF4G1-G11A peptide (peptide)
peptide: KKRYDREFLLAF
notes: eIF4G1 peptide with G11A; source: synthetic peptide (Mimotopes), HPLC purified to >90%

Assays:
[1] = Solubility of the peptide as observed on handling; type: physicochemical; details: qualitative observation
eIF4E = target: T1, eIF4E (Homo sapiens, UniProt P06730); assay: Fluorescence based thermal shift (thermal stability) assay, Sypro Red; type: binding; details: shift of eIF4E Tm, 10 µM eIF4E, 100 µM peptide, PBS, 20 to 90°C at 1°C/min, Ex/Em 533/640 nm
T1 construct: Full-length human eIF4E was expressed and purified as described previously; made in house
Description: A fluorescence based thermal shift assay was used to screen and rank the rationally designed eIF4E binding derivative peptides. The fluorescent dye Sypro Red (Invitrogen) was used to monitor thermal denaturation of eIF4E. Binding of the dye molecule to eIF4E, as it unfolds due to thermal denaturation, results in a sharp increase in the fluorescence intensity. The midpoint of this transition is termed the Tm. The thermal shift assay was conducted in a LightCycler (Roche). Protein samples studied were made up to a total volume of 50 µl in PBS (Phosphate Buffered Saline) with Sypro Red, (Invitrogen, 5000× DMSO stock) at a 3.125× concentration. The final protein concentration was 10 µM. Protein samples were incubated with derivative peptides at a concentration of 100 µM. […] The fluorescence intensity was measured with Ex/Em:533/640 nm.
The fluorescence data against temperature derived from the LightCycler were fitted to Eq. (1) to obtain ΔHu, ΔCpu, and Tm by nonlinear regression using the program Prism 4.0, Graphpad: [drawing 1] (1) where Ft is the fluorescence intensity at temperature T; Tm is the midpoint temperature of the protein-unfolding transition, Fpre and Fpost are the pretransitional and posttransitional fluorescence intensities, respectively, R is the gas constant, ΔHu is the enthalpy of protein unfolding, and ΔCpu is the heat capacity change on protein unfolding. […]

[2] = target: T2, Eukaryotic initiation factor 4E (eIF4E), full-length human (human, UniProt P06730 1-217); assay: fluorescence based thermal shift assay; 10 uM eIF4E with 100 uM peptide in PBS, Sypro Red, heated from 20 to 90 °C at 1 °C/min; Kd estimated from the Tm shift (enthalpy of binding taken to be -5 kcal/mol); details: both partners purified
T2 construct: eIF4E, human, full length

[3] = target: T2, Eukaryotic initiation factor 4E …; assay: SPR; eIF4E amine coupled to a CM5 chip (about 1000 RU, m7GTP present at immobilisation), peptides injected; 10 mM Hepes pH 7.6, 0.15 M NaCl, 1 mM DTT, 0.1% Tween20, 3% DMSO; Biacore T100; Kd from the association and dissociation phases (Kkin), 1:1 model, three titrations; details: both partners purified
[4] = target: T2, Eukaryotic initiation factor 4E …; assay: SPR; eIF4E amine coupled to a CM5 chip (about 1000 RU, m7GTP present at immobilisation), peptides injected; 10 mM Hepes pH 7.6, 0.15 M NaCl, 1 mM DTT, 0.1% Tween20, 3% DMSO; Biacore T100; Kd from the equilibrium responses (Keq), 1:1 model, three titrations; details: both partners purified
[5] = target: T2, Eukaryotic initiation factor 4E …; assay: as above; details: both partners purified; remark: listed apart in the source
[6] = target: T2, Eukaryotic initiation factor 4E …; assay: SPR; eIF4E amine coupled to a CM5 chip (about 1000 RU, m7GTP present at immobilisation), peptides injected; 10 mM Hepes pH 7.6, 0.15 M NaCl, 1 mM DTT, 0.1% Tween20, 3% DMSO; Biacore T100; Kd from the association and dissociation phases (Kkin), 1:1 model, three titrations; details: both partners purified; remark: listed apart in the source
[7] = target: T2, Eukaryotic initiation factor 4E …; assay: as above; details: both partners purified; remark: listed apart in the source
[8] = target: T2, Eukaryotic initiation factor 4E …; assay: SPR; eIF4E amine coupled to a CM5 chip (about 1000 RU, m7GTP present at immobilisation), peptides injected; 10 mM Hepes pH 7.6, 0.15 M NaCl, 1 mM DTT, 0.1% Tween20, 3% DMSO; Biacore T100; Kd from the equilibrium responses (Keq), 1:1 model, three titrations; details: both partners purified; remark: listed apart in the source

T2 sequence (P06730 whole entry): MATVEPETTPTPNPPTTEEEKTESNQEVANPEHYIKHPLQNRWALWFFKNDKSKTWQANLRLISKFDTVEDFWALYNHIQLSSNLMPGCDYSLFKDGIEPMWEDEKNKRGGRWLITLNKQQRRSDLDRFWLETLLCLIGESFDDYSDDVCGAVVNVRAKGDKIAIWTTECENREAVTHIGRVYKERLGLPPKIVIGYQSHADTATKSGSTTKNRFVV
T1 sequence (P06730 whole entry): as above

Row | Molecule | Kd [2] | thermal shift (Tm) [2] | Kd [3] | Kd [4] | Kd [5] | Kd [6] | also measured
1 | SLHYSRDQLVAL [PHAGE, phage display selected 12mer […]] | – | – | – | – | – | – | solubility of the peptide (in words) [1]: insoluble; Thermal Shift (Tm, °C) (eIF4E): no observable shift
2 | KKRYSRDQLVAL [PHAGESOL] | – | – | – | – | – | – | solubility of the peptide (in words) [1]: soluble
3 | B1 | 460 nM | 7.03 ± 0.1 °C | 524 ± 61.6 nM | 580 ± 16.7 nM | – | – | –
4 | B2 | – | – | – | – | 43.21 ± 0.34 nM | 40.7 ± 3.8 nM | –
5 | B3 | – | – | – | – | – | – | Kd [7]: 388.9 ± 1.6 nM; Kd [8]: 444.5 ± 1.6 nM
6 | B4 | 2000 nM | 5 ± 0.03 °C | 1780 ± 406 nM | 1630 ± 75.1 nM | – | – | –
7 | B5 | 100 nM | 8.97 ± 0.07 °C | 99.9 ± 6.2 nM | 103 ± 2.3 nM | – | – | –
8 | B6 | – | – | – | – | 69.9 ± 6.4 nM | 62 ± 3.5 nM | –
9 | B7 | – | – | – | – | – | – | Kd [7]: 105 ± 7.2 nM; Kd [8]: 110 ± 1.8 nM
10 | B8 | – | – | – | – | – | – | Kd [7]: 458 ± 19.8 nM; Kd [8]: 436 ± 6.4 nM
11 | B9 | – | – | – | – | 37.2 ± 1.6 nM | 34.7 ± 1.2 nM | –
12 | B10 | – | – | – | – | 348 ± 20.9 nM | 374 ± 33.1 nM | –
13 | B11 | – | – | – | – | – | – | Kd [7]: 440 ± 26 nM; Kd [8]: 468 ± 28.1 nM
14 | B12 | – | – | – | – | 1090 ± 49.9 nM | 1090 ± 106 nM | –
15 | B13 | 520 nM | 6.87 ± 0.12 °C | 718 ± 98 nM | 761 ± 63.8 nM | – | – | –
16 | B14 | – | – | – | – | 49.6 ± 4.3 nM | 47.1 ± 1.5 nM | –
17 | B15 | – | – | – | – | – | – | Kd [7]: 692 ± 31.2 nM; Kd [8]: 749 ± 57.7 nM
18 | B16 | 77 nM | 9.83 ± 0.1 °C | 77.1 ± 9 nM | 76.7 ± 3.4 nM | – | – | –
19 | B17 | 4400 nM | 3.9 ± 0.03 °C | 2680 ± 444 nM | 4540 ± 622 nM | – | – | –
20 | B18 | – | – | – | – | 196 ± 6.3 nM | 184 ± 15.4 nM | –
21 | B19 | – | – | – | – | 112 ± 2.7 nM | 120 ± 5.3 nM | –
22 | B20 | 520 nM | 6.87 ± 0.18 °C | 759 ± 70.7 nM | 784 ± 21.5 nM | – | – | –
23 | B21 | – | – | – | – | 51.6 ± 1.8 nM | 52.9 ± 2.1 nM | –
24 | B22 | – | – | – | – | 52.2 ± 1.4 nM | 59.4 ± 2.9 nM | –
25 | B23 | – | – | – | – | – | – | Kd [7]: 717 ± 31.2 nM; Kd [8]: 684 ± 13.6 nM
26 | B24 | 200 nM | 8.13 ± 0.12 °C | 282 ± 17.6 nM | 309 ± 11.6 nM | – | – | –

— PMC3477164, “Improved eIF4E Binding Peptides by Phage Display Guided Design: Plasticity of Interacting Surfaces Yield Collective Effects” (PLoS ONE, 2012)
